Reference: PMC6315561

Experiments:
[1] = target: Full baseplate complex of phage Phi4.2 (Dit, Tal, RBP1, RBP2) (Lactococcus phage Phi4.2); test: negative stain electron microscopy; purified baseplate complexes at 0.03 mg/mL on carbon-coated grids, Ca2+ in the protein buffer; baseplate to back-to-back dimer of baseplates
[2] = target: ΔRBP1_(Phi4.2) baseplate complex (Dit, Tal, RBP2) (Lactococcus phage Phi4.2); test: as above

Substance	stoichiometry N [1]	stoichiometry N [2]
Full baseplate complex of phage Phi4.2 (Dit, Tal, RBP1, RBP2)	2	
ΔRBP1_(Phi4.2) baseplate complex (Dit, Tal, RBP2)		2
